Experimental data taken from IntAct's records for PubMed 35512704.

B1: Mothers against decapentaplegic homolog 4 (Homo sapiens), Q13485 (parent)
chain: MDNMSITNTPTSNDACLSIVHSLMCHRQGGESETFAKRAIESLVKKLKEKKDELDSLITAITTNGAHPSKCVTIQRTLDGRLQVAGRKGFPHVIYARLWRWPDLHKNELKHVKYCQYAFDLKCDSVCVNPYHYERVVSPGIDLSGLTLQSNAPSSMMVKDEYVHDFEGQPSLSTEGHSIQTIQHPPSNRASTETYSTPALLAPSESNATSTANFPNIPVASTSQPASILGGSHSEGLLQIASGPQPGQQQNGFTGQPATYHHNSTTTWTGSRTAPYTPNLPHHQNGHLQHHPPMPPHPGHYWPVHNELAFQPPISNHPAPEYWCSIAYFEMDVQVGETFKVPSSCPIVTVDGYVDPSGGDRFCLGQLSNVHRTEAIERARLHIGKGVQLECKGEGDVWVRCLSDHAVFVQSYYLDREAGRAPGDAVHKIYPSAYIKVFDLRQCHRQMQQQAATAQAAAAAQAAAVAGNIPGPGSVGGIAPAISLSAAAGIGVDDLRRLCILRMSFVKGWGPDYPRQSIKETPCWIEIHLHRALQLLDEVLHTMPIADPQPLD

Variants of: B1
Settings: with smad3_human SMAD3, P84022

Variant	effect of a mutation on the interaction
G386D	disrupting interaction strength

Variants of: B1
Settings: with smad1_human SMAD1, Q15797

Variant	effect of a mutation on the interaction
G386D	disrupting interaction strength

Variants of: B1
Settings: with axin2_human AXIN2, Q9Y2T1
axin2_human AXIN2, Q9Y2T1, sequence (Q9Y2T1 whole entry): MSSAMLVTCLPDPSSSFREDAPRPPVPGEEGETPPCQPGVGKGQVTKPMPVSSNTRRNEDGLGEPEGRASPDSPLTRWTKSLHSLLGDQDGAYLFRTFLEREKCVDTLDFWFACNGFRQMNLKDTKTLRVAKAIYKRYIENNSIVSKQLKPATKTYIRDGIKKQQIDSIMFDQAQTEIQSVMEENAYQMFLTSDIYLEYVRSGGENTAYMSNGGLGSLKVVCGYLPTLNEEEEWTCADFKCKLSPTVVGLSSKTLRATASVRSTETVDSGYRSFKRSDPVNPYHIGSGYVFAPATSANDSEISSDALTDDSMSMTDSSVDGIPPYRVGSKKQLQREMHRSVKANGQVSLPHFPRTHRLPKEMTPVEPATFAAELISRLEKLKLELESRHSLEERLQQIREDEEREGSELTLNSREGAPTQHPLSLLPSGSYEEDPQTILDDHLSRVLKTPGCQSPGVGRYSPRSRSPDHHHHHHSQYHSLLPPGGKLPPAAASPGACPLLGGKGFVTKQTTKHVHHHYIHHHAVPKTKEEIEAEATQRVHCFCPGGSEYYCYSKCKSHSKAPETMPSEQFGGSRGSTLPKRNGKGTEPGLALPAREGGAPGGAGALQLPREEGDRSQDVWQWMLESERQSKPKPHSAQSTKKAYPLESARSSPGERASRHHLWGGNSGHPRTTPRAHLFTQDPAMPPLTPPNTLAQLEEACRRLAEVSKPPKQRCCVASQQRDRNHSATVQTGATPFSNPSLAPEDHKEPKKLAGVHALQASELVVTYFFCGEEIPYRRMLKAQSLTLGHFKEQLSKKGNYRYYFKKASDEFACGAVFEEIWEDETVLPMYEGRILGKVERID

Variant	effect of a mutation on the interaction
G386D	causing an interaction

Variants of: B1
Settings: with gsk3b_human GSK3B

Variant	effect of a mutation on the interaction
G386D	causing an interaction

Variants of: B1
Settings: with agap2_human AGAP2, Q99490

Variant	effect of a mutation on the interaction
G386D	with no effect

Variants of: B1
Settings: with ajuba_human AJUBA

Variant	effect of a mutation on the interaction
G386D	with no effect

Variants of: B1
Settings: with akt1_human AKT1, P31749

Variant	effect of a mutation on the interaction
G386D	with no effect

Variants of: B1
Settings: with akts1_human AKT1S1, Q96B36

Variant	effect of a mutation on the interaction
G386D	with no effect

Variants of: B1
Settings: with alk_human ALK

Variant	effect of a mutation on the interaction
G386D	with no effect

Variants of: B1
Settings: with aph1a_human APH1A

Variant	effect of a mutation on the interaction
G386D	with no effect

Variants of: B1
Settings: with arnt_human ARNT

Variant	effect of a mutation on the interaction
G386D	with no effect

Variants of: B1
Settings: with bakor_human ATG14, Q6ZNE5

Variant	effect of a mutation on the interaction
G386D	with no effect

Variants of: B1
Settings: with atpb_human ATP5F1B

Variant	effect of a mutation on the interaction
G386D	with no effect

Variants of: B1
Settings: with aurkb_human AURKB

Variant	effect of a mutation on the interaction
G386D	with no effect

Variants of: B1
Settings: with axin2_human AXIN2, Q9Y2T1
Remark: another data set of the same source

Variant	effect of a mutation on the interaction
G386D	with no effect

Variants of: B1
Settings: with ufo_human AXL

Variant	effect of a mutation on the interaction
G386D	with no effect

Variants of: B1
Settings: with za2g_human AZGP1, P25311

Variant	effect of a mutation on the interaction
G386D	with no effect

Variants of: B1
Settings: with b2mg_human B2M

Variant	effect of a mutation on the interaction
G386D	with no effect

Variants of: B1
Settings: with bap1_human BAP1, Q92560
bap1_human BAP1, Q92560, sequence (Q92560 whole entry): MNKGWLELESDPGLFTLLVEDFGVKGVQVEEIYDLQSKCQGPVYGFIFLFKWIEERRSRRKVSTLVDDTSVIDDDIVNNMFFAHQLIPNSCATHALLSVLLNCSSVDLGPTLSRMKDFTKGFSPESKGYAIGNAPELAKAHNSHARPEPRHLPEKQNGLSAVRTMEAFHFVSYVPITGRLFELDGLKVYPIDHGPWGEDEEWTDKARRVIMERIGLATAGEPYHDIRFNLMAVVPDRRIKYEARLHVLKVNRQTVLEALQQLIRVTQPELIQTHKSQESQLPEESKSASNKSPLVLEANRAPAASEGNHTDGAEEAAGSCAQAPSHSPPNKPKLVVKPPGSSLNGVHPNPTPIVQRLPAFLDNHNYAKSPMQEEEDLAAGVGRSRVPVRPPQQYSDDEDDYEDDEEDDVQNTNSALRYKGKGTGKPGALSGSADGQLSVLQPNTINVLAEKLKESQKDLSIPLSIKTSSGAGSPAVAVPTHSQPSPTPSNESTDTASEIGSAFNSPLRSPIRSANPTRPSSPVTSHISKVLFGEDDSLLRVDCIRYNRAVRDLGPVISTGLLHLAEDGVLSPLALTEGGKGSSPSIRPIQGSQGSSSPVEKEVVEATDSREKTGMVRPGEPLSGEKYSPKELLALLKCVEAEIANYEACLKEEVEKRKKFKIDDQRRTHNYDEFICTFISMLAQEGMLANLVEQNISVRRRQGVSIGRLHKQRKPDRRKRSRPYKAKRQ

Variant	effect of a mutation on the interaction
G386D	with no effect

Variants of: B1
Settings: with becn1_human BECN1, Q14457

Variant	effect of a mutation on the interaction
G386D	with no effect

Variants of: B1
Settings: with birc2_human BIRC2, Q13490

Variant	effect of a mutation on the interaction
G386D	with no effect

Variants of: B1
Settings: with braf_human BRAF

Variant	effect of a mutation on the interaction
G386D	with no effect

Variants of: B1
Settings: with baba2_human BABAM2, Q9NXR7
baba2_human BABAM2, Q9NXR7, sequence (Q9NXR7 whole entry): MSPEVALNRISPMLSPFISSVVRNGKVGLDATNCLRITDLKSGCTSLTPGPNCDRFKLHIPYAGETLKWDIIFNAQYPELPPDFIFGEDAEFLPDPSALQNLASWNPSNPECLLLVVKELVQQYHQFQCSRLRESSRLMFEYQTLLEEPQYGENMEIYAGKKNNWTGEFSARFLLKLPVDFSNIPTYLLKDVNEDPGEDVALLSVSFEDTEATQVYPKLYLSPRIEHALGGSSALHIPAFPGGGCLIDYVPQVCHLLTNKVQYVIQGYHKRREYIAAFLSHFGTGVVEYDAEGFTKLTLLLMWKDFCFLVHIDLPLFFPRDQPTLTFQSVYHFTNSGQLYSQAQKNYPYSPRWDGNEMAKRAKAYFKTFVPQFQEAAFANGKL

Variant	effect of a mutation on the interaction
G386D	with no effect

Variants of: B1
Settings: with btg1_human BTG1, P62324
btg1_human BTG1, P62324, sequence (P62324 whole entry): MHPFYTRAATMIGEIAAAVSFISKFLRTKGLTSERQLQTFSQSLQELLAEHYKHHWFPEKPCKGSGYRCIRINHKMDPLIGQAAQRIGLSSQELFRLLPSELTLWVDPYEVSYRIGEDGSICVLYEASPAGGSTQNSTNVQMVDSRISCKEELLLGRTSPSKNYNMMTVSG

Variant	effect of a mutation on the interaction
G386D	with no effect

Variants of: B1
Settings: with btk_human BTK

Variant	effect of a mutation on the interaction
G386D	with no effect

Variants of: B1
Settings: with cbl_human CBL

Variant	effect of a mutation on the interaction
G386D	with no effect

Variants of: B1
Settings: with cblb_human CBLB

Variant	effect of a mutation on the interaction
G386D	with no effect

Variants of: B1
Settings: with ccnd1_human CCND1, P24385

Variant	effect of a mutation on the interaction
G386D	with no effect

Variants of: B1
Settings: with ccnd2_human CCND2, P30279

Variant	effect of a mutation on the interaction
G386D	with no effect

Variants of: B1
Settings: with ccnd3_human CCND3, P30281

Variant	effect of a mutation on the interaction
G386D	with no effect

Variants of: B1
Settings: with cd44_human CD44, P16070

Variant	effect of a mutation on the interaction
G386D	with no effect

Variants of: B1
Settings: with cd79b_human CD79B

Variant	effect of a mutation on the interaction
G386D	with no effect

Variants of: B1
Settings: with cdc27_human CDC27, P30260

Variant	effect of a mutation on the interaction
G386D	with no effect

Variants of: B1
Settings: with cdk4_human CDK4, P11802

Variant	effect of a mutation on the interaction
G386D	with no effect

Variants of: B1
Settings: with cdk6_human CDK6, Q00534
cdk6_human CDK6, Q00534, sequence (Q00534 whole entry): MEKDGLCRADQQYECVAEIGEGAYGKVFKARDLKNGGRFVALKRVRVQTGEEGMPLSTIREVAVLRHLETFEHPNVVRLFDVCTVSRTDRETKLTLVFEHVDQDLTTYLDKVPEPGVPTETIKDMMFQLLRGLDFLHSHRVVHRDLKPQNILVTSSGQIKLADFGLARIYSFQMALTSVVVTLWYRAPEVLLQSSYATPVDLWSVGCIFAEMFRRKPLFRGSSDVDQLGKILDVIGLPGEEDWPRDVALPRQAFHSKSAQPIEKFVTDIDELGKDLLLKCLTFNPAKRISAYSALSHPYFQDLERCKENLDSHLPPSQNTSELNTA

Variant	effect of a mutation on the interaction
G386D	with no effect

Variants of: B1
Settings: with cdn2b_human CDKN2B

Variant	effect of a mutation on the interaction
G386D	with no effect

Variants of: B1
Settings: with cdn2c_human CDKN2C

Variant	effect of a mutation on the interaction
G386D	with no effect

Variants of: B1
Settings: with cebpa_human CEBPA

Variant	effect of a mutation on the interaction
G386D	with no effect

Variants of: B1
Settings: with chd1l_human CHD1L

Variant	effect of a mutation on the interaction
G386D	with no effect

Variants of: B1
Settings: with chd2_human CHD2, O14647

Variant	effect of a mutation on the interaction
G386D	with no effect

Variants of: B1
Settings: with ch3l1_human CHI3L1, P36222

Variant	effect of a mutation on the interaction
G386D	with no effect

Variants of: B1
Settings: with csf1r_human CSF1R

Variant	effect of a mutation on the interaction
G386D	with no effect

Variants of: B1
Settings: with ctna1_human CTNNA1, P35221

Variant	effect of a mutation on the interaction
G386D	with no effect

Variants of: B1
Settings: with ctnb1_human CTNNB1, P35222
ctnb1_human CTNNB1, P35222, sequence (P35222 whole entry): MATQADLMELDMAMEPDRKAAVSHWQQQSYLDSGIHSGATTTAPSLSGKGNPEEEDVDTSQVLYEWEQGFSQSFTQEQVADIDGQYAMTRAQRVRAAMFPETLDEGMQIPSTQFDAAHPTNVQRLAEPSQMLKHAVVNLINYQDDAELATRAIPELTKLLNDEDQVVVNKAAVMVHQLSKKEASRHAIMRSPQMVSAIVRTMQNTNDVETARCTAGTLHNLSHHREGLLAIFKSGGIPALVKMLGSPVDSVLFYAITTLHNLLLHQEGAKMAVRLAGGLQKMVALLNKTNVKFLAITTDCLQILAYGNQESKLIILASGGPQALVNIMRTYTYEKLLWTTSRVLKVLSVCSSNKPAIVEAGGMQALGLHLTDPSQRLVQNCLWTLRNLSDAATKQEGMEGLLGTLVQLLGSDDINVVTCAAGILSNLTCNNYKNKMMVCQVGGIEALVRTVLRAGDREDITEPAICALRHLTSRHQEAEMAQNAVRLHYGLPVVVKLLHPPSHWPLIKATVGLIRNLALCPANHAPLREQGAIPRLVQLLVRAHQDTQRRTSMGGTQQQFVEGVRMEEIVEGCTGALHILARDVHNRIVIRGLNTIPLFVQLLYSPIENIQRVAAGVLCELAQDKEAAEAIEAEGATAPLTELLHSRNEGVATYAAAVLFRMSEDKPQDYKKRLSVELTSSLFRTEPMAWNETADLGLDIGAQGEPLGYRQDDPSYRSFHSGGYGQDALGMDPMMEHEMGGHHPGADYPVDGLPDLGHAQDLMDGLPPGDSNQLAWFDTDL

Variant	effect of a mutation on the interaction
G386D	with no effect

Variants of: B1
Settings: with cul3_human CUL3, Q13618
cul3_human CUL3, Q13618, sequence (Q13618 whole entry): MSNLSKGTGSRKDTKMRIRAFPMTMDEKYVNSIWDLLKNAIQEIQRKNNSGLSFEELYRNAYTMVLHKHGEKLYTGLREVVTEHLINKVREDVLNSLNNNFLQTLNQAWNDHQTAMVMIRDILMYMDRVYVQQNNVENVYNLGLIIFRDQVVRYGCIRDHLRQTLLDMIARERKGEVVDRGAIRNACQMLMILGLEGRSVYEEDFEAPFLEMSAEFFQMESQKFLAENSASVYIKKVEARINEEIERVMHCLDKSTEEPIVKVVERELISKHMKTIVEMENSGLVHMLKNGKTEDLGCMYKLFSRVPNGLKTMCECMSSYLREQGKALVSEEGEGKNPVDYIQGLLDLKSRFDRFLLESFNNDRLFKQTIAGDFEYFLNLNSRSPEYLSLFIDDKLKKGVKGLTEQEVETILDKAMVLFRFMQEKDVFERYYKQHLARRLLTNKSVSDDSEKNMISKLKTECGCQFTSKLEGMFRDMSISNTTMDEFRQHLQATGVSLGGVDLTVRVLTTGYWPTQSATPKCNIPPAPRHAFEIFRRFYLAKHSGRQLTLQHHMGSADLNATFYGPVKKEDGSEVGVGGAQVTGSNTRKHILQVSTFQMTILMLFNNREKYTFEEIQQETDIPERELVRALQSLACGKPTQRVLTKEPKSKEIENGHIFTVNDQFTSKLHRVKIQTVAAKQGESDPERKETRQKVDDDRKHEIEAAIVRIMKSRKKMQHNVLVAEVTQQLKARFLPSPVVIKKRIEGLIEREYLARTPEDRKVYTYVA

Variant	effect of a mutation on the interaction
G386D	with no effect

Variants of: B1
Settings: with dicer_human DICER1, Q9UPY3

Variant	effect of a mutation on the interaction
G386D	with no effect

Variants of: B1
Settings: with dll3_human DLL3, Q9NYJ7

Variant	effect of a mutation on the interaction
G386D	with no effect

Variants of: B1
Settings: with duox2_human DUOX2, Q9NRD8

Variant	effect of a mutation on the interaction
G386D	with no effect

Variants of: B1
Settings: with e2f1_human E2F1, Q01094

Variant	effect of a mutation on the interaction
G386D	with no effect

Variants of: B1
Settings: with e2f2_human E2F2, Q14209
e2f2_human E2F2, Q14209, sequence (Q14209 whole entry): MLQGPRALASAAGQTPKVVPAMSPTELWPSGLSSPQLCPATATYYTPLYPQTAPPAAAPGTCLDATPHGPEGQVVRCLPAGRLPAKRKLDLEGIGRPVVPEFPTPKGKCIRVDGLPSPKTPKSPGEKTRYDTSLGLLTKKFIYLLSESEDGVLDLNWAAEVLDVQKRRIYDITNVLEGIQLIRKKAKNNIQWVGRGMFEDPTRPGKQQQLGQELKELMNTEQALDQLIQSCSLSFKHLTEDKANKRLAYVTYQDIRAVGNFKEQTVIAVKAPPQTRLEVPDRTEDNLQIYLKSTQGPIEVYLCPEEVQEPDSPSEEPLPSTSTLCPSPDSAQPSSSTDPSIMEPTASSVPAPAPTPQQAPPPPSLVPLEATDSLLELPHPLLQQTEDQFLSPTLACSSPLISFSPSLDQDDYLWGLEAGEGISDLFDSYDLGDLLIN

Variant	effect of a mutation on the interaction
G386D	with no effect

Variants of: B1
Settings: with e2f4_human E2F4, Q16254

Variant	effect of a mutation on the interaction
G386D	with no effect

Variants of: B1
Settings: with e2f5_human E2F5, Q15329
e2f5_human E2F5, Q15329, sequence (Q15329 whole entry): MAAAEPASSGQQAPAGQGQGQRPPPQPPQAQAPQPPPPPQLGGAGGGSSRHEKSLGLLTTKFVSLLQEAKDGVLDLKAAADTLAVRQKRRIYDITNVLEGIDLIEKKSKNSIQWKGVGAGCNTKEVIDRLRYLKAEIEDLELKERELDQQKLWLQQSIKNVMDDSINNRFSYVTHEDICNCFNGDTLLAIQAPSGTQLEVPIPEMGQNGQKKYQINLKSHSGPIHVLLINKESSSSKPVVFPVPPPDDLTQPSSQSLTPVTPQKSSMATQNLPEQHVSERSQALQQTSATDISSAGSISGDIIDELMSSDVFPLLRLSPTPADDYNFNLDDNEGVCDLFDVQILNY

Variant	effect of a mutation on the interaction
G386D	with no effect
